± gives the uncertainty stated by the source.
Assay: self-splicing fitness, log relative to wild type (ln ratio); higher = more splicing; Tetrahymena group I intron in knt gene, E. coli kanamycin selection, DiMSum; sequences stand for … in CUCUCU…GGAGGGAAAAGUUAUCAGGCAUGCACCUGGUAGCUAGUCUUUAAACCAAUAGAUUGCAUCGGUUUAAAAGGCAAGACCGUCAAAUUGCGGGAAAGGGGUCAACAGCCGUUCAGUACCAAGUCUCAGGGGAAACUUUGAGAUGGCCUUGCAAAGGGUAUGGUAAUAAGCUGACGGACAUGGUCCUAACCACGCAGCCAAGUCCUAAGUCAACAGAUCUUCUGUUGAUAUGGAUGCAGUUCACAGACUAAAUGUCGGUCGGGGAAGAUGUAUUCUUCUCAUAAGAUAUAGUCGGACCUCUCCUUAAUGGGAGCUAGCGGAUGAAGUGAUGCAACACUGGAGCCGCUGGGAACUAAUUUGUAUGCGAAAGUAUAUUGAUUAGUUUUGGAGUACUCGUGGUCG
In short: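 The eight P1ex-region nucleotides of an intron in the knt kanamycin-resistance gene on pET-22b(+) were all randomised and the library put into E. coli BL21(DE3). Six replicate transformations were grown overnight at 37°C or 30°C on LB agar with or without 25 μg/mL kanamycin, together with 100 μg/mL carbenicillin, 50 μM IPTG and 0.2% rhamnose. Colonies were pooled and amplicon-sequenced on an Illumina HiSeq 2500. Fitness from DiMSum is the error-weighted combination of wild-type-normalised replicate fold changes, kanamycin over none.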

| Sequence | self-splicing fitness (ln) (30 °C) | self-splicing fitness (ln) (37 °C) |
| --- | --- | --- |
| CUUAAGCAAUAUUACGACAC | -3.04 ± 0.38 | -1.54 ± 0.44 |
| AAUAAGCAAUAUUACGUAUU | -3.58 ± 0.17 | -2.22 ± 0.15 |
| UAACAGCAAUAUUACGUCGU | -3.43 ± 0.14 | -2.04 ± 0.12 |
| AAGCAGCAAUAUUACGUCAG | -3.06 ± 0.2 | -2.43 ± 0.23 |
| CCGGAGCAAUAUUACGUAUU |  | -1.05 ± 0.21 |
| AAUCAGCAAUAUUACGGCGU | 0.47 ± 0.068 | 0.7 ± 0.076 |
| CGUCAGCAAUAUUACGCUAU | -3.14 ± 0.19 | -1.55 ± 0.17 |
| UCACAGCAAUAUUACGCCUA | -1.95 ± 0.3 | -0.577 ± 0.18 |
| GGCCAGCAAUAUUACGAGCU | -2.58 ± 0.4 |  |
| CUGAAGCAAUAUUACGGGGC | -3.24 ± 0.21 | -2.56 ± 0.27 |
| ACUUAGCAAUAUUACGCCAC | -3.2 ± 0.31 | -3.59 ± 0.31 |
| AGCUAGCAAUAUUACGUGAA | -1.58 ± 0.13 | -1.05 ± 0.15 |
| GCUCAGCAAUAUUACGAUAU | -0.622 ± 0.084 | 0.0543 ± 0.09 |
| UUUGAGCAAUAUUACGUUCA |  | -2.38 ± 0.36 |
| GUGAAGCAAUAUUACGCGAG | -0.336 ± 0.057 | -0.0325 ± 0.07 |
| UAAGAGCAAUAUUACGGUUG | -3.21 ± 0.2 | -1.87 ± 0.18 |
| GCCCAGCAAUAUUACGUCUA | -1.37 ± 0.084 | -1.15 ± 0.093 |
| UUCCAGCAAUAUUACGCUUU | -3.23 ± 0.23 | -0.119 ± 0.12 |
| GCCGAGCAAUAUUACGUUCU | -1.23 ± 0.1 | -0.97 ± 0.1 |
| AUGAAGCAAUAUUACGUGUG | -1.18 ± 0.059 | -0.763 ± 0.078 |
| CUGGAGCAAUAUUACGACUG | 0.202 ± 0.15 | 0.00578 ± 0.21 |
| UGUUAGCAAUAUUACGAGCA | -0.725 ± 0.12 | -0.136 ± 0.17 |
| GCCGAGCAAUAUUACGUGCU | -3.92 ± 0.21 | -2.08 ± 0.15 |
| GUCAAGCAAUAUUACGCAAC | -4.34 ± 0.26 | -2.36 ± 0.34 |
| CAAAAGCAAUAUUACGGGCC | -3.65 ± 0.27 | -2.28 ± 0.28 |

| Sequence | self-splicing fitness (ln) (30 °C) | self-splicing fitness (ln) (37 °C) |
| --- | --- | --- |
| UUACAGCAAUAUUACGGUGA | -1.03 ± 0.099 | -0.122 ± 0.14 |
| CACUAGCAAUAUUACGUUAU | -3.42 ± 0.22 | -3.52 ± 0.23 |
| ACCGAGCAAUAUUACGUCAA | -3.16 ± 0.19 | -2.36 ± 0.3 |
| AACAAGCAAUAUUACGUUAC | -3.54 ± 0.11 | -3.01 ± 0.18 |
| GAAGAGCAAUAUUACGAAAU | -3.79 ± 0.24 | -1.95 ± 0.23 |
| ACAGAGCAAUAUUACGCCAG | -2.37 ± 0.35 | -1.71 ± 0.49 |
| UAGUAGCAAUAUUACGUAGA | -3.53 ± 0.24 | -1.93 ± 0.17 |
| AUUCAGCAAUAUUACGUGAA | -0.88 ± 0.065 | -0.398 ± 0.084 |
| GGAGAGCAAUAUUACGUGAU | -3.33 ± 0.24 | -1.75 ± 0.31 |
| UCCGAGCAAUAUUACGAAGA | -1.62 ± 0.21 | -1.12 ± 0.18 |
| GCUGAGCAAUAUUACGGCGU | -0.642 ± 0.14 | 0.234 ± 0.15 |
| CUAUAGCAAUAUUACGACGC | -3.02 ± 0.36 | -2.14 ± 0.38 |
| GUCGAGCAAUAUUACGGCGU | -0.43 ± 0.19 | -0.689 ± 0.14 |
| CAGUAGCAAUAUUACGUGAG | -1.18 ± 0.067 | -0.54 ± 0.12 |
| ACUGAGCAAUAUUACGUAGA | -3.68 ± 0.17 | -2.51 ± 0.23 |
| UCUCAGCAAUAUUACGGAUA | -1.12 ± 0.16 | 0.0308 ± 0.15 |
| ACGUAGCAAUAUUACGUUAC | -3.3 ± 0.23 | -2.83 ± 0.26 |
| CUGUAGCAAUAUUACGAUUC | -3.71 ± 0.23 | -3.19 ± 0.4 |
| AGGUAGCAAUAUUACGAAGC | -3.821 ± 0.036 | -2.3 ± 0.042 |
| GCGCAGCAAUAUUACGACCC | 0.715 ± 0.26 | 0.34 ± 0.27 |
| UCAGAGCAAUAUUACGGAUC |  | -2.15 ± 0.33 |
| AGUAAGCAAUAUUACGUUGG | -3.59 ± 0.48 | -2.64 ± 0.36 |
| AAUUAGCAAUAUUACGUUUU | -1.98 ± 0.13 | -1.21 ± 0.14 |
| GUCGAGCAAUAUUACGCGUG | -1.25 ± 0.16 | -1.24 ± 0.21 |
| UUUAAGCAAUAUUACGAUGU | -2.45 ± 0.14 | -1.96 ± 0.18 |

| Sequence | self-splicing fitness (ln) (30 °C) | self-splicing fitness (ln) (37 °C) |
| --- | --- | --- |
| CUUUAGCAAUAUUACGUAGG | -1.05 ± 0.094 | -0.65 ± 0.13 |
| CACGAGCAAUAUUACGCACG | -2.13 ± 0.21 | -1.15 ± 0.21 |
| UUUCAGCAAUAUUACGGCAC | -1.79 ± 0.19 | -2.33 ± 0.24 |
| UACUAGCAAUAUUACGCUGG | -4.47 ± 0.39 | -1.78 ± 0.24 |
| UGUAAGCAAUAUUACGUAUG | -1.11 ± 0.093 | -0.727 ± 0.12 |
| CACAAGCAAUAUUACGCGCA | -0.607 ± 0.095 | -1.28 ± 0.1 |
| UCAGAGCAAUAUUACGUGGU | -4.35 ± 0.39 | -1.78 ± 0.22 |
| GUAUAGCAAUAUUACGCCGA | -2.97 ± 0.41 | -0.946 ± 0.36 |
| UCGGAGCAAUAUUACGUGAC | -1.95 ± 0.34 | -2.14 ± 0.46 |
| ACUUAGCAAUAUUACGCAUU | -1.27 ± 0.11 | -1.47 ± 0.17 |
| UCUCAGCAAUAUUACGGGCG | -0.717 ± 0.08 | -0.262 ± 0.12 |
| UCGUAGCAAUAUUACGUACA | -1.71 ± 0.24 | -1.73 ± 0.26 |
| UUGCAGCAAUAUUACGUCCG | -1.24 ± 0.1 | 0.0449 ± 0.14 |
| CGACAGCAAUAUUACGGUGC | -3.61 ± 0.26 | -2.53 ± 0.16 |
| ACCGAGCAAUAUUACGUACA | -2.64 ± 0.27 | -2.04 ± 0.27 |
| CGUAAGCAAUAUUACGCUAC |  | -1.98 ± 0.4 |
| CCUUAGCAAUAUUACGAGAU | -2.62 ± 0.26 | -2.79 ± 0.21 |
| CAAAAGCAAUAUUACGGAUU | -3.49 ± 0.1 | -2.87 ± 0.1 |
| ACCUAGCAAUAUUACGUCUC | -1.59 ± 0.096 | -0.658 ± 0.14 |
| CUUUAGCAAUAUUACGGUAG | -1.81 ± 0.085 | -0.685 ± 0.11 |
| ACGUAGCAAUAUUACGGCCU | -0.463 ± 0.12 | 0.149 ± 0.13 |
| UAUUAGCAAUAUUACGGGCA | -0.498 ± 0.19 | -0.39 ± 0.17 |
| GCUGAGCAAUAUUACGAAGA | -2.11 ± 0.21 | -0.81 ± 0.17 |
| UCCGAGCAAUAUUACGGCCG | -4.07 ± 0.34 |  |
| UUCAAGCAAUAUUACGCCUU | -1.8 ± 0.13 | -0.968 ± 0.2 |

| Sequence | self-splicing fitness (ln) (30 °C) | self-splicing fitness (ln) (37 °C) |
| --- | --- | --- |
| UUUUAGCAAUAUUACGGACA | -1.41 ± 0.18 | -0.668 ± 0.17 |
| GUAUAGCAAUAUUACGUUUU | -1.97 ± 0.2 | -2.37 ± 0.28 |
| GUUCAGCAAUAUUACGAUAG | -2.65 ± 0.2 | -1.53 ± 0.18 |
| CACGAGCAAUAUUACGACAA |  | -2.44 ± 0.28 |
| GGCGAGCAAUAUUACGUCAG | -2.33 ± 0.31 | -3.08 ± 0.4 |
| UCUCAGCAAUAUUACGAAUG | -1.73 ± 0.15 | -1.85 ± 0.26 |
| UAAGAGCAAUAUUACGGCUA | -1.03 ± 0.1 | -0.141 ± 0.11 |
| AAAUAGCAAUAUUACGCGCC | -0.57 ± 0.13 | -0.337 ± 0.15 |
| CGGCAGCAAUAUUACGACCA | -0.307 ± 0.1 | 0.682 ± 0.14 |
| GCUCAGCAAUAUUACGAUAC | -1.15 ± 0.13 | -0.697 ± 0.17 |
| GAGUAGCAAUAUUACGCAGC |  | -2.81 ± 0.34 |
| AGAAAGCAAUAUUACGGCAA | 0.0585 ± 0.1 | -0.187 ± 0.12 |
| UGAUAGCAAUAUUACGUGGA | -3.45 ± 0.3 | -2.23 ± 0.2 |
| AUUUAGCAAUAUUACGUCAA | -3.4 ± 0.29 | -2.14 ± 0.34 |
| UUUCAGCAAUAUUACGCUUA | -0.378 ± 0.086 | 0.0227 ± 0.12 |
| GCAGAGCAAUAUUACGACUU | -2.82 ± 0.16 | -0.936 ± 0.14 |
| CGGAAGCAAUAUUACGUGUA | -3.19 ± 0.17 | -3.6 ± 0.27 |
| GAGAAGCAAUAUUACGUGGU | -3.27 ± 0.17 | -2.32 ± 0.21 |
| CUGCAGCAAUAUUACGGUUC | -3.41 ± 0.1 | -2.48 ± 0.13 |
| ACUAAGCAAUAUUACGCUUA | -2.54 ± 0.25 | -2.83 ± 0.32 |
| CCCCAGCAAUAUUACGUAAA | -3.91 ± 0.17 | -2.89 ± 0.26 |
| GUCUAGCAAUAUUACGUGUA | -0.862 ± 0.084 | -0.516 ± 0.086 |
